Laboratory results from patent US20210032365A1 (Chugai, published 2021).

T1: human C1s (human, UniProt P09871 16-688)
T1 construct: Analyte in the Biacore assays; also called hC1s; serum-derived human C1s (CompTech)
T1 sequence: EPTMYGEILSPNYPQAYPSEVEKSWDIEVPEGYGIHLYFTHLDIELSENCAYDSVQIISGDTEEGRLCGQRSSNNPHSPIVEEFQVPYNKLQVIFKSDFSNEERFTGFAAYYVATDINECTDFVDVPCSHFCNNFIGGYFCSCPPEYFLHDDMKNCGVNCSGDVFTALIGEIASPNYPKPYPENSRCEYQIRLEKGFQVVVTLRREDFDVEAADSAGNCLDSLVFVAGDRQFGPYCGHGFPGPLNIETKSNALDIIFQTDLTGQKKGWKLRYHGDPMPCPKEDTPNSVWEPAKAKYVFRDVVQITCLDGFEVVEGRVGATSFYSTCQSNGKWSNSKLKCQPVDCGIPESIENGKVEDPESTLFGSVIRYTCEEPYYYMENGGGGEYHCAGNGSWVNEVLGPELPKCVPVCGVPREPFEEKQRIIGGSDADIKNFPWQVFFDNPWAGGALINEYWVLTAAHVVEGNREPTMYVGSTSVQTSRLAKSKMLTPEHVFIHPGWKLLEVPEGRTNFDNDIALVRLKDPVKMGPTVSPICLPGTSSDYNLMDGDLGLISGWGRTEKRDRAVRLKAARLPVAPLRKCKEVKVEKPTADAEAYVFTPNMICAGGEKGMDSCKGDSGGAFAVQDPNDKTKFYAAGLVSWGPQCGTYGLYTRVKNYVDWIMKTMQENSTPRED


Assays:
[1] = target: T1, human C1s; assay: SPR; KD at pH 5.8 (3 uM Ca) over KD at pH 7.4 (1.2 mM Ca)
Description: (§1) Each antibody was captured onto the sensor surface by protein A/G. Antibody capture levels were aimed at 200 resonance unit (RU). Serum-derived human C1s (CompTech) or recombinant C1s prepared in EXAMPLE 1 was injected at 50 nM, followed by dissociation. The sensor surface was regenerated in each cycle with 10 mM Glycine-HCl, pH 1.5. […] The ratio of KD 5.8+ to KD 7.4+(“KD 5+/7+”) and that of KD 5.8− to KD 7.4+(“KD 5−/7+”) were calculated. When the KD 5+/7+ or KD 5−/7+ of a variant is larger than that of the parent antibody IPN009VH2-SG4GK/IPN009VK3-SK1, that variant is considered to be “pH”- or “pH and Ca”-dependent, respectively. When binding response in 5(+) buffer and/or in 5(−) buffer of a variant is much lower than that of IPN09VH2/IPN009VK3, that variant is also considered as “pH”- and/or “pH and Ca”-dependent. Therefore, such mutations are effective to generate “pH”- and/or “pH and Ca”-dependent antibody. To further enhance “pH” and/or “pH and Ca” dependency, a combination of histidine mutations was conducted. Antibodies with combinations of histidine mutations were evaluated using Biacore by the method described above.
(§2) C1_1IPN92H0033 (SEQ ID NO: 17)-SG4GK/IPN93L0024 (SEQ ID NO: 18)-SK1 (IPN92H0033/IPN93L0024) was selected for further optimization. Histidine, Lysine, Arginine, aspartic acid, glutamic acid, and glutamine scanning was conducted for CDRs and certain positions of FRs of IPN92H0033/IPN93L0024. Variants with a mutation were generated and purified, and evaluated using Biacore by the method mentioned above. All variants were evaluated using Biacore as mentioned above. Mutations that improved “pH” and/or “pH and Ca” dependency were selected for the combination.

[2] = target: T1, human C1s; assay: SPR (Biacore T200, 37C), Ab captured on protein A/G; pH 5.8, 3 uM Ca
Description: as §1, §2

[3] = target: T1, human C1s; assay: SPR; KD at pH 5.8 (1.2 mM Ca) over KD at pH 7.4 (1.2 mM Ca)
Description: as §1, §2

[4] = target: T1, human C1s; assay: SPR (Biacore T200, 37C), Ab captured on protein A/G; pH 5.8, 1.2 mM Ca
Description: as §1, §2

Binder	KD 5(-)/7(+) [1]	Kd [2]	koff [2]	kon [2]	KD 5(+)/7(+) [3]	Kd [4]	koff [4]	kon [4]
C1_IPN92H0162-SG4GK/IPN93L0024-SK1 (antibody, human IgG4 S228P, kappa, name in Kabat numbering, V domains shown, Substitutions from IPN009VH2, Kabat numbering; also called IPN92H0162/IPN93L0024) VH: EVMLVESGGGLVKPGGSLRLSCAASGFTFSNYAMSWVRQAPGKGLEWVATISSGGSHTYKLDSVKGRFTISRDNSKDTLYLQMNSLRAEDTALYYCARLFTGHAMDYWGQGTLVTVSS VL: QIVLTQSPATLSLSPGERATLSCTASSSVSSSYLHWYQQKPGKAPKLWIYSTSNLASGVPSRFSGSGSGTDYTLTISSLQPEDFATYYCHQYYRLHPITFGQGTKLEIKR	2.72	4.89 nM	0.00784 s⁻¹	1.6e+06 M⁻¹ s⁻¹	6.4	11.5 nM	0.00524 s⁻¹	456000 M⁻¹ s⁻¹
C1_IPN92H0166-SG4GK/IPN93L0024-SK1 (antibody, human IgG4 S228P, kappa, name in Kabat numbering, V domains shown, Substitutions from IPN009VH2, Kabat numbering; also called IPN92H0166/IPN93L0024) VH: EVMLVESGGGLVKPGGSLRLSCAASGFTFSNYAMSWVRQAPGKGLEWVATISSGGSHTYYEDSVKGRFTISRDNSKDTLYLQMNSLRAEDTALYYCARLFTGHAMDYWGQGTLVTVSS VL: QIVLTQSPATLSLSPGERATLSCTASSSVSSSYLHWYQQKPGKAPKLWIYSTSNLASGVPSRFSGSGSGTDYTLTISSLQPEDFATYYCHQYYRLHPITFGQGTKLEIKR	3.84	6.75 nM	0.687 s⁻¹	1.02e+08 M⁻¹ s⁻¹	2.1	3.77 nM	0.00226 s⁻¹	600000 M⁻¹ s⁻¹
C1_IPN92H0232-SG4GK/IPN93L0024-SK1 (antibody, human IgG4 S228P, kappa, name in Kabat numbering, V domains shown, Substitutions from IPN009VH2, Kabat numbering; also called IPN92H0232/IPN93L0024) VH: EVMLVESGGGLVKPGGSLRLSCAASGFTFSNYAMSWVRQAPGKGLEWVATISSGGSHTYYLDSVKGRFTISRDNSKDTLYLQMNSLRAEDTALYYCARLFTRHAMDYWGQGTLVTVSS VL: QIVLTQSPATLSLSPGERATLSCTASSSVSSSYLHWYQQKPGKAPKLWIYSTSNLASGVPSRFSGSGSGTDYTLTISSLQPEDFATYYCHQYYRLHPITFGQGTKLEIKR	3.46	5.19 nM	0.0173 s⁻¹	3.23e+06 M⁻¹ s⁻¹	5.7	8.49 nM	0.00485 s⁻¹	570000 M⁻¹ s⁻¹
C1_IPN92H0165-SG4GK/IPN93L0024-SK1 (antibody, human IgG4 S228P, kappa, name in Kabat numbering, V domains shown, Substitutions from IPN009VH2, Kabat numbering; also called IPN92H0165/IPN93L0024) VH: EVMLVESGGGLVKPGGSLRLSCAASGFTFSNYAMSWVRQAPGKGLEWVATISSGGSHTYYDDSVKGRFTISRDNSKDTLYLQMNSLRAEDTALYYCARLFTGHAMDYWGQGTLVTVSS VL: QIVLTQSPATLSLSPGERATLSCTASSSVSSSYLHWYQQKPGKAPKLWIYSTSNLASGVPSRFSGSGSGTDYTLTISSLQPEDFATYYCHQYYRLHPITFGQGTKLEIKR	4.62	8.18 nM	0.715 s⁻¹	8.74e+07 M⁻¹ s⁻¹	2.1	3.74 nM	0.00228 s⁻¹	608000 M⁻¹ s⁻¹
C1_IPN92H0253-SG4GK/IPN93L0024-SK1 (antibody, human IgG4 S228P, kappa, name in Kabat numbering, V domains shown, Substitutions from IPN009VH2, Kabat numbering; also called IPN92H0253/IPN93L0024) VH: EVMLVESGGGLVKPGGSLRLSCAASGFTFSNYAMSWVRQAPGKGLEWVATISSGGSHTYYLDSVKGRFTISRDNSKDTLYLQMNSLRAEDTALYYCARLFTGHAMKYWGQGTLVTVSS VL: QIVLTQSPATLSLSPGERATLSCTASSSVSSSYLHWYQQKPGKAPKLWIYSTSNLASGVPSRFSGSGSGTDYTLTISSLQPEDFATYYCHQYYRLHPITFGQGTKLEIKR	210	25.4 nM	0.0147 s⁻¹	578000 M⁻¹ s⁻¹	12.6	1.52 nM	0.000717 s⁻¹	471000 M⁻¹ s⁻¹

Further binders by falling Kd [2], results first:

KD 5(-)/7(+) [1]	Kd [2]	koff [2]	kon [2]	KD 5(+)/7(+) [3]	Kd [4]	koff [4]	kon [4]	Binder
12.3	12.1 nM	0.00736 s⁻¹	606000 M⁻¹ s⁻¹	16.3	16.1 nM	0.00533 s⁻¹	332000 M⁻¹ s⁻¹	C1_IPN92H0261-SG4GK/IPN93L0091-SK1 (antibody, human IgG4 S228P, kappa, name in Kabat numbering, V domains shown, Substitutions from IPN009VH2 / IPN009VK3, Kabat numbering; also called IPN92H0261/IPN93L0091) VH: EVMLVESGGGLVKPGGSLRLSCAASGFTFSNYAMSWVRQAPGKGLEWVATISSGGSHTYELDSVKGRFTISRDNSKDTLYLQMNSLRAEDTALYYCARLFTKHAMDYWGQGTLVTVSS VL: QIVLTQSPATLSLSPGERATLSCTASSSVSSSRLHWYQQKPGKAPKLWIYSTSNLASGVPSRFSGSGSGTDYTLTISSLQPEDFATYYCHQYYRLHPITFGQGTKLEIKR
7.29	6.45 nM	0.00517 s⁻¹	802000 M⁻¹ s⁻¹	6.5	5.72 nM	0.00429 s⁻¹	751000 M⁻¹ s⁻¹	C1_IPN92H0194-SG4GK/IPN93L0024-SK1 (antibody, human IgG4 S228P, kappa, name in Kabat numbering, V domains shown, Substitutions from IPN009VH2, Kabat numbering; also called IPN92H0194/IPN93L0024) VH: EVMLVESGGGLVKPGGSLRLSCAASGFTFSNYAMSWVRQAPGKGLEWVATISSGGSHTYYLDSVKERFTISRDNSKDTLYLQMNSLRAEDTALYYCARLFTGHAMDYWGQGTLVTVSS VL: QIVLTQSPATLSLSPGERATLSCTASSSVSSSYLHWYQQKPGKAPKLWIYSTSNLASGVPSRFSGSGSGTDYTLTISSLQPEDFATYYCHQYYRLHPITFGQGTKLEIKR
4.06	5.28 nM	0.00674 s⁻¹	1.28e+06 M⁻¹ s⁻¹	7.4	9.59 nM	0.00544 s⁻¹	568000 M⁻¹ s⁻¹	C1_IPN92H0231-SG4GK/IPN93L0024-SK1 (antibody, human IgG4 S228P, kappa, name in Kabat numbering, V domains shown, Substitutions from IPN009VH2, Kabat numbering; also called IPN92H0231/IPN93L0024) VH: EVMLVESGGGLVKPGGSLRLSCAASGFTFSNYAMSWVRQAPGKGLEWVATISSGGSHTYYLDSVKGRFTISRDNSKDTLYLQMNSLRAEDTALYYCARLFTKHAMDYWGQGTLVTVSS VL: QIVLTQSPATLSLSPGERATLSCTASSSVSSSYLHWYQQKPGKAPKLWIYSTSNLASGVPSRFSGSGSGTDYTLTISSLQPEDFATYYCHQYYRLHPITFGQGTKLEIKR
2.07	4.21 nM	0.0106 s⁻¹	2.53e+06 M⁻¹ s⁻¹	4	8.21 nM	0.00413 s⁻¹	504000 M⁻¹ s⁻¹	C1_IPN92H0188-SG4GK/IPN93L0024-SK1 (antibody, human IgG4 S228P, kappa, name in Kabat numbering, V domains shown, Substitutions from IPN009VH2, Kabat numbering; also called IPN92H0188/IPN93L0024) VH: EVMLVESGGGLVKPGGSLRLSCAASGFTFSNYAMSWVRQAPGKGLEWVATISSGGSHTYYLDSVDGRFTISRDNSKDTLYLQMNSLRAEDTALYYCARLFTGHAMDYWGQGTLVTVSS VL: QIVLTQSPATLSLSPGERATLSCTASSSVSSSYLHWYQQKPGKAPKLWIYSTSNLASGVPSRFSGSGSGTDYTLTISSLQPEDFATYYCHQYYRLHPITFGQGTKLEIKR
3.47	3.21 nM	0.0685 s⁻¹	2.14e+07 M⁻¹ s⁻¹	6.2	5.74 nM	0.00417 s⁻¹	727000 M⁻¹ s⁻¹	C1_IPN92H0193-SG4GK/IPN93L0024-SK1 (antibody, human IgG4 S228P, kappa, name in Kabat numbering, V domains shown, Substitutions from IPN009VH2, Kabat numbering; also called IPN92H0193/IPN93L0024) VH: EVMLVESGGGLVKPGGSLRLSCAASGFTFSNYAMSWVRQAPGKGLEWVATISSGGSHTYYLDSVKDRFTISRDNSKDTLYLQMNSLRAEDTALYYCARLFTGHAMDYWGQGTLVTVSS VL: QIVLTQSPATLSLSPGERATLSCTASSSVSSSYLHWYQQKPGKAPKLWIYSTSNLASGVPSRFSGSGSGTDYTLTISSLQPEDFATYYCHQYYRLHPITFGQGTKLEIKR
